In US20260234242A1 (HAINAN SIMCERE ZAIMING PHARMACEUTICAL, published 2026):
Where two headings read alike, the source gives them in different places.

Tests used:
[1] = biological target: T1, his-tagged human CDH6 extracellular region protein (hCDH6 ECD-his) (human, UniProt P55285 19-615); test: SPR Biacore, antibody captured on Protein A
T1 construct: also called Human CDH6-his; hCDH6-his; not shown: his tag
T1 sequence: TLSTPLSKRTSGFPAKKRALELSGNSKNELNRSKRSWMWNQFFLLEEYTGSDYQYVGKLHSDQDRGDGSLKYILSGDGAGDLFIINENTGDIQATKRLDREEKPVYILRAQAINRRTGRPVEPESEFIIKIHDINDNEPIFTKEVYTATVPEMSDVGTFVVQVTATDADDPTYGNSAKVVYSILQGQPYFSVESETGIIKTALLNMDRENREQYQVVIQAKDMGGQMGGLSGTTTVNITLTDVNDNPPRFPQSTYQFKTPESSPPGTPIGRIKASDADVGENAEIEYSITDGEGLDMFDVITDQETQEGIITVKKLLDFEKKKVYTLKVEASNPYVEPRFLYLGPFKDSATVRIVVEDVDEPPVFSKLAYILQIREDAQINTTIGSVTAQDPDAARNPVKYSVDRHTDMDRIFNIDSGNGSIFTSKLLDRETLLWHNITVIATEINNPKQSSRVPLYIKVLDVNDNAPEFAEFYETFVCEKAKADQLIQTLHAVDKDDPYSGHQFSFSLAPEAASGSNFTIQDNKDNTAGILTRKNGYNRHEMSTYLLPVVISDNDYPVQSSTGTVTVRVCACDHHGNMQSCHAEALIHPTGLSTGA
Protocol: (§1) The affinity of the antibody for the antigen was determined by a multi-cycle kinetic method using a BIAcore 8K instrument. In each cycle, the antibody to be tested was captured using a Protein A chip (purchased from GE, Cat. No. 29-1275-56), and then the antigen human CDH6 protein (hCDH6-his, conventionally synthesized) was injected. The association and dissociation processes of the antibody with the antigen protein were recorded, and finally, the chip was regenerated using Glycine pH 1.5, wherein the mobile phase was HBS-EP+ (10 mM HEPES, 150 mM NaCl, 3 mM EDTA, 0.05% surfactant P20, and 1 mM Ca), the flow rate was 30 μL/min, the association time was 240 s, the dissociation time was 300 s, the regeneration time was 30 s, the detection temperature was 25° C., and the antigen concentration was 31.25-1000 nM. The data were analyzed using Biacore 8K analysis software (version No. 2.0) based on the 1:1 binding model to fit the antibody-antigen binding kinetic parameters, including the association rate constant ka, the dissociation rate constant kd, and the equilibrium dissociation constant KD. The affinity values of the control antibody DS-H01L02 were undetectable. Antibodies not shown in the table had undetectable affinity values.
Four hCDH6-1 humanized antibodies with fewer back mutations were selected, and the affinity for human CDH6 protein was further confirmed using Biacore.

[2] = biological target: T2, human CDH6 on tumor cells (OVCAR3 cells, PA-1 cells) (human, UniProt P55285 54-790); test: FACS, OVCAR3 cells
T2 sequence: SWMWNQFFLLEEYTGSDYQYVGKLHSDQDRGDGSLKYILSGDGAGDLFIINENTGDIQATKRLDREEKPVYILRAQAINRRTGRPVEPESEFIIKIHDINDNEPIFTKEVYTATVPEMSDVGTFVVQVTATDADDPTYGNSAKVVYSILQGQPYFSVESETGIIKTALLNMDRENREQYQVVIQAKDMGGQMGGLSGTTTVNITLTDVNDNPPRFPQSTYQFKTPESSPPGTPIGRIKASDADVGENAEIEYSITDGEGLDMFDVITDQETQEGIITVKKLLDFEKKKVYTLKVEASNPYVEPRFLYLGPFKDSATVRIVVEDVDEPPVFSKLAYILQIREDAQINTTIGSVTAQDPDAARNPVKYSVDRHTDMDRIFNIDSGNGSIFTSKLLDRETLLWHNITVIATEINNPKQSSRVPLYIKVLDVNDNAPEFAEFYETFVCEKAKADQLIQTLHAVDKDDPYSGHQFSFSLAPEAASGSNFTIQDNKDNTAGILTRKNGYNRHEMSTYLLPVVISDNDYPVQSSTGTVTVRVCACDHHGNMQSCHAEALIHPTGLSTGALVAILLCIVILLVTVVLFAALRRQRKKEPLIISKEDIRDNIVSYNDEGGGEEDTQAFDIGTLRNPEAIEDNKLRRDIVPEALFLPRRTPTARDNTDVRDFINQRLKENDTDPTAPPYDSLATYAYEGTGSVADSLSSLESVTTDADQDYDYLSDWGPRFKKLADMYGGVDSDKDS
Protocol: (§2) OVCAR3 cells with high expression of CDH6 and PA-1 cells with moderate expression of CDH6 were used to detect the binding activity of the antibodies to the cells. […] The cells were washed once with PBS, counted, resuspended to 2×10⁶ cells/mL in an FACS buffer (PBS+2% FBS), and then added to a 96-well plate at 50 μL/well. The chimeric antibodies were diluted with FACS buffer (PBS+2% FBS) and added to the 96-well plate at 50 μL/well, and the plate was incubated at 4° C. for 1 h. […] The dilution was added to the 96-well plate at 50 μL/well, and the plate was incubated at 4° C. for 1 h. After the plates were centrifuged and washed 2 times with PBS, the cells were resuspended in an FACS buffer. The mean fluorescence intensity (MFI) was measured using FACS Canton II (BD). Analysis was performed by the GraphPad Prism software, data were fitted, and EC50 values were calculated. The chimeric antibodies tested had strong binding to both OVCAR3 cells and PA-1 cells.
(§3) According to the above sequences, heavy chain (HC) and light chain (LC) plasmids were constructed (the nucleic acid sequences encoding the VH and VL of the antibodies were recombined into an expression vector carrying a signal peptide (SEQ ID NO: 132, […]) and a heavy chain constant region/light chain constant region sequence to obtain recombinant plasmids expressing VH-CH1-Fc/VL-CL). According to the expression and purification methods in Example 2, the hCDH6-1 humanized antibodies were obtained, and the binding activity of the humanized antibodies was detected by ELISA and FACS (see 2.2 and 2.3 for the method).

[3] = biological target: T1, his-tagged human CDH6 extracellular …; test: ELISA, coated antigen
Protocol: (§4) Human CDH6 protein (hCDH6 ECD-his, conventionally synthesized), monkey CDH6 protein (cynoCDH6 ECD-his, conventionally synthesized; the cynoCDH6 ECD sequence was derived from Uniprot #A0A2K5TW62 (19-615)), and murine CDH6 protein (mCDH6 ECD-his, conventionally synthesized; the mCDH6 ECD sequence was derived from Uniprot #P97326 (19-615)) were diluted with PBS to a final concentration of 1 μg/mL, and added to a 96-well ELISA plate at 100 μL/well. The plate was incubated at 4° C. overnight. The next day, the plate was washed 3 times with a plate washing solution (PBS+0.01% (v/v) Tween 20), and a blocking buffer (PBS+0.01% (v/v) Tween 20+2% (w/w) BSA) was added for blocking at room temperature for 2 h. The blocking buffer was discarded, and the plate was washed 3 times. The chimeric antibodies were diluted with 1% BSA+PBS (purchased from Cytiva, Cat. No. SH30264.01) and added to the 96-well plate at 50 μL/well. After incubation at 37° C. for 2 h, the plate was washed 3 times with a plate washing solution. […] The plate was incubated at 37° C. for 1 h and then washed 5 times with a plate washing solution. A TMB substrate (purchased from Seracare, Cat. No. 5120-0077) was added at 50 μL/well and incubated at room temperature for 10 min, then a stop solution (1.0 N HCl) was added at 50 μL/well. OD450 nm values were read using a microplate reader (Biotek). Analysis was performed by the GraphPad Prism software, data were fitted, and EC50 values were calculated. The chimeric antibodies tested all had strong binding to the human CDH6 protein, the monkey CDH6 protein, and the murine CDH6 protein.
(§5) According to the above sequences, heavy chain (HC) and light chain (LC) plasmids were constructed (the nucleic acid sequences encoding the VH and VL of the antibodies were recombined into an expression vector carrying a signal peptide (SEQ ID NO: 132, […]) and a heavy chain constant region/light chain constant region sequence to obtain recombinant plasmids expressing VH-CH1-Fc/VL-CL).

[4] = biological target: T2, human CDH6 on tumor cells (OVCAR3 …); test: FACS, OVCAR3 cells; remark: listed apart in the source
Protocol: as §2
as §3, with “VH—CH1-Fc/VL-CL).” for “VH-CH1-Fc/VL-CL).”, “hCDH6-6” for “hCDH6-1”

[5] = biological target: T1, his-tagged human CDH6 extracellular …; test: ELISA, coated antigen; remark: listed apart in the source
Protocol: as §4
as §5, with “VH—CH1-Fc/VL-CL).” for “VH-CH1-Fc/VL-CL).”

[6] = biological target: T1, his-tagged human CDH6 extracellular …; test: SPR Biacore, antibody captured on Protein A; remark: listed apart in the source
Protocol: as §1
Four hCDH6-6 humanized antibodies with fewer back mutations were selected, and the affinity for human CDH6 protein was further confirmed using Biacore.

Binder | Kd [1] | koff [1] | kon [1] | EC50 [2] | Max MFI [2] | EC50 [3] | Max OD450 [3] | EC50 [4] | Max MFI [4] | EC50 [5] | Max OD450 [5] | Kd [6] | koff [6] | kon [6]
hCDH6-1-H1L2 (antibody, V domains shown, Humanized) VH: EVQLVQSGAEVKKPGSSVKVSCKASGYTFSNYWMHWVRQAPGQGLEWMGDIDPSHSETHYTQKFKDRVTITVDKSTSTAYMELSSLRSEDTAVYYCARGDLGRFDYWGQGTTVTVSS VL: DIVMTQSPDSLAVSLGERATINCRASESVSIHGTHLMHWYQQKSGQPPKLLIYAASNLESGVPDRFSGSGSETDFTLTISSLQAEDVAVYYCQQSFEDPWTFGGGTKVEIK | 21.5 nM | 0.00422 s⁻¹ | 196000 M⁻¹ s⁻¹ | 0.177 nM | 14500 MFI | 0.027 nM | 2.75 OD450 |  |  |  |  |  |  | 
hCDH6-1-H1L3 (antibody, V domains shown, Humanized) VH: EVQLVQSGAEVKKPGSSVKVSCKASGYTFSNYWMHWVRQAPGQGLEWMGDIDPSHSETHYTQKFKDRVTITVDKSTSTAYMELSSLRSEDTAVYYCARGDLGRFDYWGQGTTVTVSS VL: DIQMTQSPSSLSASVGDRVTITCRASESVSIHGTHLMHWYQQKPGKPPKLLIYAASNLESGVPSRFSGSGSETDFTFTISSLQPEDIATYYCQQSFEDPWTFGGGTKVEIK | 18.9 nM | 0.00824 s⁻¹ | 435000 M⁻¹ s⁻¹ | 0.175 nM | 14500 MFI | 0.029 nM | 2.67 OD450 |  |  |  |  |  |  | 
hCDH6-6-H1L2 (antibody, V domains shown, Humanized) VH: EVQLVQSGAEVKKPGASVKVSCKASGYTFTDYYMAWVRQAPGQGLEWMGYIFPNSGGTDYSQKFKGRVTMTVDKSTSTVYMELSSLRSEDTAVYYCARELGADYGDYYAMDHWGQGTTVTVSS VL: DIQMTQSPSSLSASVGDRVTITCRASENIDSYLAWYQQKPGKSPKLLVYSATLLADGVPSRFSGSGSGTDYTLTISSLQPEDFATYYCQHYYRTPPTFGQGTKLEIK |  |  |  |  |  |  |  | 0.62 nM | 14300 MFI | 0.028 nM | 2.07 OD450 | 138 nM | 0.00607 s⁻¹ | 44100 M⁻¹ s⁻¹
hCDH6-6-H1L1 (antibody, V domains shown, Humanized) VH: EVQLVQSGAEVKKPGASVKVSCKASGYTFTDYYMAWVRQAPGQGLEWMGYIFPNSGGTDYSQKFKGRVTMTVDKSTSTVYMELSSLRSEDTAVYYCARELGADYGDYYAMDHWGQGTTVTVSS VL: DIQMTQSPSSLSASVGDRVTITCRASENIDSYLAWYQQKPGKSPKLLLYSATLLADGVPSRFSGSGSGTDYTLTISSLQPEDFATYYCQHYYRTPPTFGQGTKLEIK |  |  |  |  |  |  |  | 0.62 nM | 13700 MFI | 0.037 nM | 2.08 OD450 | 192 nM | 0.00743 s⁻¹ | 38600 M⁻¹ s⁻¹
hCDH6-6-H2L1 (antibody, V domains shown, Humanized) VH: EVQLVQSGAEVKKPGASVKVSCKASGYTFTDYYMAWVRQAPGQGLEWMGYIFPNSGGTDYSQKFKGRVTLTVDKSTSTVYMELSSLRSEDTAVYYCARELGADYGDYYAMDHWGQGTTVTVSS VL: DIQMTQSPSSLSASVGDRVTITCRASENIDSYLAWYQQKPGKSPKLLLYSATLLADGVPSRFSGSGSGTDYTLTISSLQPEDFATYYCQHYYRTPPTFGQGTKLEIK |  |  |  |  |  |  |  | 0.61 nM | 14000 MFI | 0.032 nM | 2.01 OD450 | 133 nM | 0.00616 s⁻¹ | 46200 M⁻¹ s⁻¹
